This data set concerns the molecule itself. Put plainly: cryo-EM imaging of cells; unlabelled purified S-layer proteins added to Vps4 E209Q ΔslaA cells at 75°C for 1 h; cells plunge frozen and imaged (Glacios 200 kV); S-layer lattice seen on the cell surface.

B1: exogenous unlabelled S-layer protein SlaA, purified from wild-type S. acidocaldarius DSM639 (natural protein, UniProt Q4J6E5 25-1424, looked up)
chain: ITTTALTPPVSAGGIQAYLLTGSGAPASGLVLFVVNVSNIQVSSSNVTNVISTVVSNIQINAKTENAQTGATTGSVTVRFPTSGYNAYYDSVDKVVFVVVSFLYPYTTTSVNIPLSYLSKYLPGLLTAQPYDETGAQVTSVSSTPFGSLIDTSTGQQILGTNPVLTSYNSYTTQANTNMQEGVVSGTLTSFTLGGQSFSGSTVPVILYAPFIFSNSPYQAGLYNPMQVNGNLGSLSSEAYYHPVIWGRALINTTLIDTYASGSVPFTFQLNYSVPGPLTINMAQLAWIASINNLPTSFTYLSYKFSNGYESFLGIISNSTQLTAGALTINPSGNFTINGKKFYVYLLVVGSTNSTTPVEYVTKLVVEYPSSTNFLPQGVTVTTSSNKYTLPVYEIGGPAGTTITLTGNWYSTPYTVQITVGSTPTLTNYVSQILLKAVAYEGINVSTTQSPYYSTAILSTPPSEISITGSSTITAQGKLTATSASATVNLLTNATLTYENIPLTQYSFNGIIVTPGYAAINGTTAMAYVIGALYNKTSDYVLSFAGSQEPMQVMNNNLTEVTTLAPFGLTLLAPSVPATETGTSPLQLEFFTVPSTSYIALVDFGLWGNLTSVTVSAYDTVNNKLSVNLGYFYGIVIPPSISTAPYNYQNFICPNNYVTVTIYDPDAVLDPYPSGSFTTSSLPLKYGNMNITGAVIFPGSSVYNPSGVFGYSNFNKGAAVTTFTYTAQSGPFSPVALTGNTNYLSQYADNNPTDNYYFIQTVNGMPVLMGGLSIVASPVSASLPSSTSSPGFMYLLPSAAQVPSPLPGMATPNYNLNIYITYKIDGATVGNNMINGLYVASQNTLIYVVPNGSFVGSNIKLTYTTTDYAVLHYFYSTGQYKVFKTVSVPNVTANLYFPSSTTPLYQLSVPLYLSEPYYGSPLPTYIGLGTNGTSLWNSPNYVLFGVSAVQQYLGFIKSISVTLSNGTTVVIPLTTSNMQTLFPQLVGQELQACNGTFQFGISITGLEKLLNLNVQQLNNSILSVTYHDYVTGETLTATTKLVALSTLSLVAKGAGVVEFLLTAYPYTGNITFAPPWFIAENVVKQPFMTYSDLQFAKTNPSAILSLSTVNITVVGLGGKASVYYNSTSGQTVITNIYGQTVATLSGNVLPTLTELAAGNGTFTGSLQFTIVPNNTVVQIPSSLTKTSFAVYTNGSLAIVLNGKAYSLGPAGLFLLPFVTYTGSAIGANATAIITVSDGVGTSTTQVPITAENFTPIRLAPFQVPAQVPLPNAPKLKYEYNGSIVITPQQQVLKIYVTSILPYPQEFQIQAFVYEASQFNVHTGSPTAAPVYFSYSAVRAYPALGIGTSVPNLLVYVQLQGISNLPAGKYVIVLSAVPFAGGPVLSEYPAQLIFTNVTLTQ
modifications: highly glycosylated
notes: S-layer protein SlaA, Sulfolobus acidocaldarius DSM639, gene saci2355; endogenous protein extracted from the cell surface; The purified preparation also holds SlaB (mass spectrometry, Coomassie gel); also called unlabelled exogeneous S-layer proteins; purified S-layer proteins
For B1, the binding result was “binds”.

Values taken from article doi:10.1101/2025.02.04.636414, “The mechanics of a continuous self-assembling surface-layer aids cell division in an archaeon” (bioRxiv, 2025).
